Patent publication US20110256132A1 (published 2011)
Like-named read-outs stand apart in the source and are kept apart here.

Tests used:
[1] = molecular target: T1, mature myostatin (recombinant, dimeric) (mouse polyprotein used for in-house …, UniProt O08689 268-376); assay: myostatin binding ELISA, 10 ng/well recombinant myostatin coated, CHOK1 supernatants, anti-human kappa HRP, OPD, A490 (Examples 4.1, 4.2)
T1 construct: also called GDF-8; recombinant myostatin
T1 sequence: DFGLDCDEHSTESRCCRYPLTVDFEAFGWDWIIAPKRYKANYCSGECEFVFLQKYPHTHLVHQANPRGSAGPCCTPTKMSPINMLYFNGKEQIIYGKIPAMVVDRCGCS
Description: The myostatin binding ELISA was carried out approximately according to this protocol. A 96-well ELISA plate was coated at 4° C. overnight with 10 ng/well recombinant myostatin. This plate was then washed 3-times in wash buffer (PBS, 0.1% Tween-20). The wells were blocked for 1 hour at room temperature with block solution (PBS, 0.1% Tween-20+1% bovine serum albumin [BSA]), before washing 3-times in wash buffer. Antibodies were then titrated out to a suitable concentration range (approximately 100 to 0.001 μg/ml), added to the plate and incubated for 1 hour at room temperature. The plate was then washed 3-times in wash buffer. An anti-mouse IgG HRP-conjugated antibody (P0260 by Dako, this reagent was used according to the manufacturer's instructions) was used to detect binding of mouse antibodies, such as 10B3. An anti-human kappa light chain HRP-conjugated antibody (A7164 by Sigma Aldridge, this reagent was used according to the manufacturer's instructions) was used to detect binding of humanized or chimeric antibodies, such as 10B3 chimera or H0L0. The plate was then washed 3-times in wash buffer and developed with an OPD substrate (from Sigma, used according to the manufacturer's instructions) and read at 490 nm on a plate reader.

[2] = molecular target: T1, mature myostatin (recombinant, dimeric); assay: ActRIIb receptor binding assay (Example 2.5), mean IC50
Description: Recombinant soluble ActRIIb (R&D Systems 339-RBB) was coated in wells of an ELISA plate at 1 μg/ml in carbonate buffer overnight at 4° C. Plates were blocked (see Block solution above at 2.3) and washed following standard ELISA protocols. In parallel, 2 nM biotinylated myostatin (in-house, as described in 1.1, biotinylated material) was pre-incubated with an antibody dilution series consisting of 10B3, 10B3C, and a negative control (IgG1 isotype control) for 2 hours at 37° C. The biotinylated myostatin:antibody reactions were then added to the ActRIIb coated plate for 1 hour at 37° C. Standard wash procedures were followed prior to addition of 1:1000 diluted streptavidin-HRP conjugate (Dako P0397) and a further 37° C. incubation for 1 hour. Plates were again washed and assayed at absorbance 490 nm following OPD substrate (Sigma) and acid stop solution treatment Inhibition curves and IC50 values for the inhibition of myostatin activity are shown in FIG. 5 and Table 8 respectively.
H2L2 C91S_G55S F100G_Y, the developability enhanced molecule with the highest apparent potency in the A204 assay was Fc-disabled (by making the following substitutions, using EU numbering system: Leu 235 Ala; and Gly 237 Ala) as exemplified in SEQ ID NO: 99.

[3] = molecular target: T1, mature myostatin (recombinant, dimeric); assay: cell-based or functional assay
[4] = molecular target: T1, mature myostatin (recombinant, dimeric); assay: cell-based or functional assay; remark: listed apart in the source
[5] = molecular target: T1, mature myostatin (recombinant, dimeric); assay: competition ELISA, directly coated myostatin, competitor 10B3
Description: (§1) A 96-well ELISA plate was coated at 4° C. overnight with 2.5 μg/ml polyclonal Antibody to Myostatin (R&D Systems AF788). This plate was then washed 3-times in wash buffer (PBS, 0.1% Tween-20) and blocked for 1 hour at room temperature with block solution (PBS, 0.1% Tween-20+1% bovine serum albumin [BSA]). Then, myostatin was added at 1 μg/ml in block buffer during 1 hour followed by 3-times in wash buffer. Antibodies were then titrated out to a suitable concentration range (approximately 10 to 0.01 μg/ml), added to the plate and incubated for 1 hour at room temperature. The plate was then washed 3-times in wash buffer. An anti-human kappa light chain HRP-conjugated antibody (Sigma A7164, used according to the manufacturer's instructions) was used to detect binding of humanized or chimeric antibodies, such as 10B3 chimera (HcLc) or H0L0. The plate was then washed 3-times in wash buffer and developed with an OPD substrate (according to the manufacturer's instructions) and read at 490 nm on a plate reader.
The protocol set out in 6.7 was used but the plates were initially coated at 4° C. overnight with 0.2 μg/ml of myostatin (recombinant in-house, see 1.1 above). 10B3 (final concentration of 0.3 μg/ml) was added into each well and mixed with antibodies titrated out to a suitable concentration range (approximately 10 to 0.01 μg/ml). An anti-mouse HRP-conjugated antibody (DAKO P0260, used according to the manufacturer's instructions) was used to detect binding of the 10B3 antibody.

[6] = molecular target: T1, mature myostatin (recombinant, dimeric); assay: competition ELISA, myostatin captured by polyclonal antibody, competitor 10B3
Description: as §1
The protocol set out in 6.7 was used with the addition of 10B3 (final concentration of […]) to each well and mixed with the antibodies titrated out to a suitable concentration range (approximately 10 to 0.01 μg/ml). An anti-mouse HRP-conjugated antibody (DAKO P0260, used according to the manufacturer's instructions) was used to detect binding of the 10B3 antibody.

[7] = molecular target: T1, mature myostatin (recombinant, dimeric); assay: cell-based or functional assay; remark: listed apart in the source
[8] = molecular target: T1, mature myostatin (recombinant, dimeric); assay: competition ELISA, biotinylated myostatin on streptavidin, competitor 10B3
Description: as §1
The protocol set out in 6.7 was used but the plates were initially coated at 4° C. overnight with 5 μg/ml of streptavidin. Biotinylated myostatin was added at 0.3 μg/ml block buffer during 1 hour followed by 3-times in wash buffer. 10B3 (final concentration of 0.2 μg/ml) was added into each well and mixed with antibodies titrated out to a suitable concentration range (approximately 10 to 0.01 μg/ml). An anti-mouse HRP-conjugated antibody (DAKO P0260, used according to the manufacturer's instructions) was used to detect binding of the 10B3 antibody.

B1: H2L0 (antibody, human IgG1, kappa)
heavy: not shown
light: DIQMTQSPSSLSASVGDRVTITCKASQDINSYLSWFQQKPGKAPKSLIYRANRLVDGVPSKFSGSGSGTDFTLTISSLQPEDFATYYCLQCDEFPLTFGQGTKLEIKRTVAAPSVFIFPPSDEQLKSGTASVVCLLNNFYPREAKVQWKVDNALQSGNSQESVTEQDSKDSTYSLSSTLTLSKADYEKHKVYACEVTHQGLSSPVTKSFNRGEC
notes: Humanised, human IgG1 wild type/kappa
B1: binds [1].

B2: H2L2 C91S_G55S F100G_Y (antibody)
chain 1: not shown
chain 2: DIQMTQSPSSLSASVGDRVTITCKASQDINSYLSWFQQKPGKAPKSLIYRANRLVDGVPSKFSGSGSGTDYTLTISSLQPEDFATYYCLQSDEFPLTFGQGTKLEIKRTVAAPSVFIFPPSDEQLKSGTASVVCLLNNFYPREAKVQWKVDNALQSGNSQESVTEQDSKDSTYSLSSTLTLSKADYEKHKVYACEVTHQGLSSPVTKSFNRGEC
In the case of B2, the IC50 [2] is reported as 0.786 nM and the “Mean IC50, A204 in vitro activity assay” value [3] is reported as 4.42 nM.

B3: H2L2-C91S_F100G_Y Fc Disabled (antibody, human IgG1, kappa)
heavy: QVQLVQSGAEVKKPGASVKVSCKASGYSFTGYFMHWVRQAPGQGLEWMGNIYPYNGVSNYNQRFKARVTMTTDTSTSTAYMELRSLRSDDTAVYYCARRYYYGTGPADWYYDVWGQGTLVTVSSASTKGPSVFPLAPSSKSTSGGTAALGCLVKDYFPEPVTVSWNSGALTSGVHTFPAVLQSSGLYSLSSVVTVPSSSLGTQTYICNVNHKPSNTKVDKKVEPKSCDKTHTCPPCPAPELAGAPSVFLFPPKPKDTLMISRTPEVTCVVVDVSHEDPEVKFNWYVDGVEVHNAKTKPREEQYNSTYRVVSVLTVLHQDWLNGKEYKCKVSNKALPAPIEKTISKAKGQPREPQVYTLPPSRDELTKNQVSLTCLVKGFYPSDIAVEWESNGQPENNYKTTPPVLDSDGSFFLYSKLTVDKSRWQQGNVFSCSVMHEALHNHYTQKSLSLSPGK
light: DIQMTQSPSSLSASVGDRVTITCKASQDINSYLSWFQQKPGKAPKSLIYRANRLVDGVPSKFSGSGSGTDYTLTISSLQPEDFATYYCLQSDEFPLTFGQGTKLEIKRTVAAPSVFIFPPSDEQLKSGTASVVCLLNNFYPREAKVQWKVDNALQSGNSQESVTEQDSKDSTYSLSSTLTLSKADYEKHKVYACEVTHQGLSSPVTKSFNRGEC
In the case of B3, the “Mean IC50, A204 in vitro activity assay” value [4] is reported as 1.24 nM.

B4: H2L1 (antibody, human IgG1, kappa)
heavy: not shown
light: DIQMTQSPSSLSASVRDRVTITCKASQDINSYLSWFQQKPGKAPKSLIYRANRLVDGVPSKFSGSGSGTDFTLTISSLQPEDFATYYCLQCDEFPLTFGQGTKLEIKRTVAAPSVFIFPPSDEQLKSGTASVVCLLNNFYPREAKVQWKVDNALQSGNSQESVTEQDSKDSTYSLSSTLTLSKADYEKHKVYACEVTHQGLSSPVTKSFNRGEC
notes: as for B1
B4: binds [1].

B5: H2L3 (antibody, human IgG1, kappa)
heavy: not shown
light: DIQMTQSPSSLSASVGDRVTITCKASQDINSYLSWFQQKPGKAPKSLIYRANRLVDGVPSKFSGSGSGTDFTLTISSLQPEDFATYYCLQCDEFPLTFGAGTKLEIKRTVAAPSVFIFPPSDEQLKSGTASVVCLLNNFYPREAKVQWKVDNALQSGNSQESVTEQDSKDSTYSLSSTLTLSKADYEKHKVYACEVTHQGLSSPVTKSFNRGEC
notes: as for B1
B5: binds [1].

B6: H2L2-C91S_F100G_Y (antibody, human IgG1, kappa)
heavy: not shown
light: DIQMTQSPSSLSASVGDRVTITCKASQDINSYLSWFQQKPGKAPKSLIYRANRLVDGVPSKFSGSGSGTDYTLTISSLQPEDFATYYCLQSDEFPLTFGQGTKLEIKRTVAAPSVFIFPPSDEQLKSGTASVVCLLNNFYPREAKVQWKVDNALQSGNSQESVTEQDSKDSTYSLSSTLTLSKADYEKHKVYACEVTHQGLSSPVTKSFNRGEC
notes: Fc not disabled
With B6 the “ranking order top (1) to bottom (5), myostatin competition ELISA” value (shortened to “ranking order top (1) to bottom”) [5] was 2, the “ranking order top (1) to bottom” value [6] was 4 and the “Mean IC50, A204 in vitro activity assay” value [3] was 11.1 nM. For the same binder, the “Mean IC50, A204 in vitro activity assay (5 nM myostatin)” value [7] was 3.64 nM and the “ranking order top (1) to bottom” value [8] was 2.

B7: H2L2 C91S_G55S F100G_Y-Fc disabled (antibody, human IgG1, kappa)
heavy: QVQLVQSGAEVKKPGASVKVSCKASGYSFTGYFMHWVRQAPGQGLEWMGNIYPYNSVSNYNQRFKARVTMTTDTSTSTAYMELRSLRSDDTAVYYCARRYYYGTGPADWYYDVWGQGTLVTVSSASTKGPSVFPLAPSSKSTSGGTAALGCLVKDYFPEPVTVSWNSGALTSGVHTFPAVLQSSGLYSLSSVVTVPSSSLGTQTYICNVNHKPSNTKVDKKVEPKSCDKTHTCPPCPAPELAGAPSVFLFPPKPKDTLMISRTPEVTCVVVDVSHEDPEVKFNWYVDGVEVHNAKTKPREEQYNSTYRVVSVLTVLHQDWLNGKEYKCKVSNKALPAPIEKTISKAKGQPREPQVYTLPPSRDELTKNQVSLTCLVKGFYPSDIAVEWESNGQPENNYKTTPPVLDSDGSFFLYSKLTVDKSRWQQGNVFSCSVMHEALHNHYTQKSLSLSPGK
light: DIQMTQSPSSLSASVGDRVTITCKASQDINSYLSWFQQKPGKAPKSLIYRANRLVDGVPSKFSGSGSGTDYTLTISSLQPEDFATYYCLQSDEFPLTFGQGTKLEIKRTVAAPSVFIFPPSDEQLKSGTASVVCLLNNFYPREAKVQWKVDNALQSGNSQESVTEQDSKDSTYSLSSTLTLSKADYEKHKVYACEVTHQGLSSPVTKSFNRGEC
With B7 the IC50 [2] was 0.518 nM.
